The target of experiment [1] is T1, Recombinant human glypican-3 (aa 1-559), His-tagged, R&D Systems (human, UniProt P51654 25-559).
T1 construct: also called huGPC3; Hu GPC3-His
Kind of experiment: SPR KD, 37 C, Biacore T100. How it is done:
(§1) For off-rate measurements, single 200 nM adnectin/AdxDC concentrations were injected using identical conditions. One 30s injection of 10 mM glycine pH 1.7 was used to remove bound adnectin and regenerate the GPC3 surfaces between assay cycles.
(§2) Rate constants kₐ (kₒₙ) and kd (koff) were derived from reference-subtracted sensorgrams fit to a 1:1 binding model in Biacore T100 Evaluation Software v2.0.4 (GE Healthcare). The affinity constant, KD was calculated from the ratio of rate constants kd/kₐ.

Experiment [2] concerns the target T2, Human glypican-3 on cells (Huh7, Hep3B, H446, Hep3B xenograft tissue) (human, UniProt P51654 25-554).
T2 construct: Endogenous GPC3 of human tumour cell lines; also called huGPC3 on cells; GPC3 receptor
Kind of experiment: flow cytometry on Hep3B cells, His Tag PE antibody. How it is done:
GPC3 AdxDC were evaluated by flow cytometry for binding to human Hep3B hepatocellular carcinoma cells grown in MEM with 10% FBS, and H446 small cell lung carcinoma cells grown in RPMI with 10% FBS. Cells were harvested using Cellstripper, a non-enzymatic cell dissociation solution from Mediatch (Corning: Manassas, VA 20109), Cat. #25-056-CL. Tumor cells (25,000/reaction) were suspended in FACS buffer (PBS+5% FBS+0.01% NaN₃) and mixed with a serial dilution of AdxDC for 1 hour on ice. Cells were washed three times with FACS buffer, and bound AdxDC was detected with His Tag PE-conjugated Antibody from R&D System, cat #IC050P, and read on a flow cytometer.
A general note: Flow cytometry measures light scatter and fluorescence of single cells or particles in a stream.

Experiment [3] has as its target T2, Human glypican-3 on cells (Huh7, Hep3B, …). In words: cell-based or functional assay.
For experiment [4] the target is unchanged. Kind of experiment: staining of Hep3B xenograft tissue.
In experiment [5] the target is T1, Recombinant human glypican-3 (aa …). In words: SPR. In general terms: SPR reads the build-up and loss of mass on a sensor chip optically.
In experiment [6] the target is T2, Human glypican-3 on cells (Huh7, Hep3B, …). In words: cell-based or functional assay. The source holds these as a separate data set.
Experiment [7] addresses T1, Recombinant human glypican-3 (aa …). In words: SPR, 37 C. Here is the method:
as §1, §2

In experiment [8] the target is T3, Recombinant murine glypican-3 (aa 25-557), R&D Systems (murine, UniProt Q8CFZ4 25-557).
T3 construct: also called muGPC3; Mu GPC3-His
Kind of experiment: SPR, 37 C. How it is done: as §1, §2

The target of experiment [9] is T2, Human glypican-3 on cells (Huh7, Hep3B, …). In words: flow cytometry on Huh7 cells, unconjugated protein; Huh7 cells; unconjugated protein. Here is the method:
The binding of DG variants to huGPC3 in DG GPC3 AdxDCs mutants were evaluated by flow cytometry for binding to Huh7 carcinoma cells grown in DMEM media with 10% FBS. Cells were harvested using Versene, an EDTA cell dissociation solution from Lonza, Cat. #17-711E. Tumor cells (1E5 cells/reaction) were suspended in FACS buffer (PBS, 1% BSA, 0.05% Na Azide) and mixed with a serial dilution of AdxDC for one hour on ice. Cells were washed three times with FACS buffer, and bound AdxDC was detected with an in house anti-scaffold monoclonal Ab and PE-conjugated Antibody from (RnD Systems), cat #NL007, and read on a flow cytometer.

The text below walks through data of patent US20230312686A1 (Bristol-Myers Squibb, published 2023).

T2 sequence (P51654 25-554 limits assumed): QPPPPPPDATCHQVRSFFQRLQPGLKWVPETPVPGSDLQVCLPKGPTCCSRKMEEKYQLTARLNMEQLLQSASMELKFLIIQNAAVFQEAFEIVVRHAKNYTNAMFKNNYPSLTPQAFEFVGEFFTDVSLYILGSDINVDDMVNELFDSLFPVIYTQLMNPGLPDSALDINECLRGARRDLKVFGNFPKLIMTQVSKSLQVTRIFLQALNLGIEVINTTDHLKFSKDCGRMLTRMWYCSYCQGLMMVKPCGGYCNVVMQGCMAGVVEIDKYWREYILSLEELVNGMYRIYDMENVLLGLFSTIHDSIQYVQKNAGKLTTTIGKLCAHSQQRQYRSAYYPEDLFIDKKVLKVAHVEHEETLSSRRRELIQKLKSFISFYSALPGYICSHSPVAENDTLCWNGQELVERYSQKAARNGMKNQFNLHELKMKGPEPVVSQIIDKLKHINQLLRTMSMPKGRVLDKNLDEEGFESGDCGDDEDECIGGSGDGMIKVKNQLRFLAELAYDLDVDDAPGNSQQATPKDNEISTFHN
T1 sequence (P51654 other isoform, or with tags, fused parts or gaps): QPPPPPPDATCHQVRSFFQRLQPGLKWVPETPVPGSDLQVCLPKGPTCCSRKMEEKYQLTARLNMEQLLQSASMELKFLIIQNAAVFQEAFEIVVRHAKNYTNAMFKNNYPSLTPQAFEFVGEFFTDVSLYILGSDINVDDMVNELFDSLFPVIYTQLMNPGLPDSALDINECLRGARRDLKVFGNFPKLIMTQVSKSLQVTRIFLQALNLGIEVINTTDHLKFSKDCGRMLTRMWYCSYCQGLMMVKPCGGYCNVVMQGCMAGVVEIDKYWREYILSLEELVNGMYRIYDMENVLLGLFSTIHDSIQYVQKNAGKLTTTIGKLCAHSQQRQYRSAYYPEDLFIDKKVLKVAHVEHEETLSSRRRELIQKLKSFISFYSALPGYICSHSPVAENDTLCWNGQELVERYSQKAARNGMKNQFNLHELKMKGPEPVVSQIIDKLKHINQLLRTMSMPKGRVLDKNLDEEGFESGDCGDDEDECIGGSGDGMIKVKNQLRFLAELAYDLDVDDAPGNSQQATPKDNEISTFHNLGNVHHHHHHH
T3 sequence (Q8CFZ4 25-557 limits assumed, form in doubt): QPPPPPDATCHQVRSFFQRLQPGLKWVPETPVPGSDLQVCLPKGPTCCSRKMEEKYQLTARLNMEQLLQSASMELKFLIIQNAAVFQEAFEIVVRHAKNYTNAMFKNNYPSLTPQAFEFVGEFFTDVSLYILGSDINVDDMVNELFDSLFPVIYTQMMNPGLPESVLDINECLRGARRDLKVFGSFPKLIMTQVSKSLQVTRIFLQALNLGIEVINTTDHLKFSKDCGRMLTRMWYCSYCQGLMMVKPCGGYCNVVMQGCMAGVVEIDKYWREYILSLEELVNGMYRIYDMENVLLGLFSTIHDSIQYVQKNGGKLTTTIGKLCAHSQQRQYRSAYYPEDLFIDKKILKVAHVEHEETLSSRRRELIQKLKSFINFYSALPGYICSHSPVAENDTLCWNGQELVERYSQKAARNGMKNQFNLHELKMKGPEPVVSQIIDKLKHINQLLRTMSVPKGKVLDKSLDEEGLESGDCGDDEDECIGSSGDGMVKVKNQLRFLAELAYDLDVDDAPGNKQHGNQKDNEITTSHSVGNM

B1: ADX_6093_A01 DAR1 AdxDC (non-binding control) (designed binder)
chain: MGVSDVPRDLEVVAATPTSLLISWDAPAVTVRYYRITYGETGGNSPVQEFTVPGSKSTATISGLKPGVDYTITVYAVTGRGESPASSKPISINYRTPCHHHHHH
modifications: tubulysin analog-linker (formula IV) on the C-terminal cysteine (DAR1)
notes: Control 10Fn3 with RGE in place of RGD; also called RGE AdxDC
For B1, the binding result in [1] is given as “no binding”; in [2], “no binding (tested: about 30 nM)”. For the same molecule, in experiment [3], the “AdxDC cell-killing IC50” value is above 25 nM.

B2: RGE-FITC (designed binder)
chain: B1 chain
modifications: fluorescein-5-maleimide on the C-terminal cysteine
Turning to B2, the binding result is recorded as “no binding (tested: 0.2 µg/ml)” in [4] and “no binding” in experiment [5].

B3: GPC3_AdxDC DA variant-DAR1 (designed binder)
chain: GVSDVPRDLEVVAATPTSLLISWSDDYHAHRYYRITYGETGGNSPVQEFTVPGEHVTATISGLKPGVDYTITVYAVTYDAEKAATDWSISINYRTPC
modifications: tubulysin analog-linker conjugated to the C-terminal cysteine (DAR1)
notes: also called DA variant AdxDC DAR1; GPC3_AdxDC (DA) DAR1
With B3, the “Cell-killing IC50 (Huh7)” value in experiment [6] came out at 0.2 nM. In experiment [7], the dissociation constant Kd is 25 nM and the koff amounted to 0.0021 s⁻¹. Also, in [8], the equilibrium dissociation constant (Kd) was determined as 23 nM and the off-rate (koff) is 0.00095 s⁻¹.

B4: DA variant of ADX_6077_F02, unconjugated protein (designed binder)
chain: B3 chain
notes: also called DA variant, unconjugated
B4 had a 50% effective concentration (EC50) in experiment [9] of 2.2 nM.

What is called Kd is the constant that tells how readily two partners part at equilibrium. For orientation: koff means the rate constant with which the complex falls apart. One may read the EC50 as the concentration at which the effect is half-maximal.
